This passage reports kcat/Km, Km and kcat results from patent publication US20170137855A1, “RECOMBINANT CELLS AND METHODS FOR NONPHOSPHORYLATIVE METABOLISM” (REGENTS OF THE UNIVERSITY OF MINNESOTA, priority 2015, published 2017).

Substrate in data set [1]: O=C(O)C(=O)C[C@H](O)CO
The data set is described as follows: 2-ketoacid decarboxylase Kivd wild type, coupled assay, NADPH oxidation at 340 nm. The data set is classed as biochemical. The settings on record: other: wild type; BTO substrate; pH 7.5; 30.0 °C. The procedure:
(§1) 2-Ketoacid decarboxylase (Kivd) and alcohol dehydrogenase (YqhD): The decarboxylase activity of Kivd was measured by a coupled enzymatic assay with AraC, AraD, and YqhD (Zhang et al., 2011. ChemSusChem 4:1068-1070). Excess AraC, AraD, and YqhD was used and the oxidation of NADPH was monitored at 340 nm. The assay mixture contained 1 mM NADPH, 1 μM AraC, 1 μM AraD, and 100 nM YqhD and 0.1-10 mM L-arabonate in assay buffer (100 mM Tris-HCl buffer, pH 7.5, 5 mM MgSO4, 0.5 mM ThDP) with a total volume of 0.1 ml. The mixture was incubated at 30° C. for one hour and 10 nM Kivd was added. The dehydrogenase activity of YqhD was assayed according to NADPH initial consumption rates in a coupled assay. The assay mixture contained 1 mM NADPH, 100 nM Kivd, 1 μM AraC, 1 μM AraD, and 0.1-10 mM L-arabonate in 100 μl of 100 mM Tris-HCl buffer (pH 7.5) with 5 mM MgSO4. The mixture was first incubated at 30° C. for one hour. Afterwards, 10 nM YqhD was added and the NADPH consumption rate was monitored.

Substrate in data set [2]: O=CCCC(=O)C(=O)O
Described as above. The data set is classed as biochemical. The note with it: other: coupled assay, substrate from 0.1-10 mM L-arabonate, 1 mM NADPH, 0.5 mM ThDP, pH 7.5, 10 nM Kivd, 30.0 °C. The procedure:
as §1

Substrate in data set [3]: O=C(O)C(=O)C[C@H](O)CO
Description: 2-ketoacid decarboxylase Kivd V461I mutant, coupled assay, NADPH oxidation at 340 nm. The format is biochemical, Lactococcus lactis. The note with it: other: V461I mutant; BTO substrate; pH 7.5; 30.0 °C. On the procedure:
as §1

Substrate in data set [4]: O=CCCC(=O)C(=O)O
Described as above. The data set is classed as biochemical, Lactococcus lactis. The settings on record: other: V461I mutant, coupled assay, pH 7.5, 30.0 °C. On the procedure: as §1

By kcat/Km is commonly meant the second-order rate constant that governs catalysis at low substrate concentration. In general, Km refers to the substrate concentration at which the rate is half of its maximum. The term kcat denotes the maximal rate divided by the concentration of active sites.

B1: Lactococcus lactis 2-ketoacid decarboxylase Kivd, wild type (Lactococcus lactis subsp. lactis) (protein)
chain: MYTVGDYLLDRLHELGIEEIFGVPGDYNLQFLDQIISHKDMKWVGNANELNASYMADGYARTKKAAAFLTTFGVGELSAVNGLAGSYAENLPVVEIVGSPTSKVQNEGKFVHHTLADGDFKHFMKMHEPVTAARTLLTAENATVEIDRVLSALLKERKPVYINLPVDVAAAKAEKPSLPLKKENSTSNTSDQEILNKIQESLKNAKKPIVITGHEIISFGLEKTVTQFISKTKLPITTLNFGKSSVDEALPSFLGIYNGTLSEPNLKEFVESADFILMLGVKLTDSSTGAFTHHLNENKMISLNIDEGKIFNERIQNFDFESLISSLLDLSEIEYKGKYIDKKQEDFVPSNALLSQDRLWQAVENLTQSNETIVAEQGTSFFGASSIFLKSKSHFIGQPLWGSIGYTFPAALGSQIADKESRHLLFIGDGSLQLTVQELGLAIREKINPICFIINNDGYTVEREIHGPNQSYNDIPMWNYSKLPESFGATEDRVVSKIVRTENEFVSVMKEAQADPNRMYWIELILAKEGAPKVLKKMGKLFAEQNKS
notes: also expressed from pBDO-5 in E. coli fermentation (A5)
B1: the kcat/Km in data set [1] came to 7700 M⁻¹ s⁻¹. Moreover, in data set [2], the Km was found to be 4.8 mM and the kcat came out at 4.8 s⁻¹.

B2: Lactococcus lactis 2-ketoacid decarboxylase Kivd variant V461I (Lactococcus lactis subsp. lactis; V461I) (protein)
chain: MYTVGDYLLDRLHELGIEEIFGVPGDYNLQFLDQIISHKDMKWVGNANELNASYMADGYARTKKAAAFLTTFGVGELSAVNGLAGSYAENLPVVEIVGSPTSKVQNEGKFVHHTLADGDFKHFMKMHEPVTAARTLLTAENATVEIDRVLSALLKERKPVYINLPVDVAAAKAEKPSLPLKKENSTSNTSDQEILNKIQESLKNAKKPIVITGHEIISFGLEKTVTQFISKTKLPITTLNFGKSSVDEALPSFLGIYNGTLSEPNLKEFVESADFILMLGVKLTDSSTGAFTHHLNENKMISLNIDEGKIFNERIQNFDFESLISSLLDLSEIEYKGKYIDKKQEDFVPSNALLSQDRLWQAVENLTQSNETIVAEQGTSFFGASSIFLKSKSHFIGQPLWGSIGYTFPAALGSQIADKESRHLLFIGDGSLQLTVQELGLAIREKINPICFIINNDGYTIEREIHGPNQSYNDIPMWNYSKLPESFGATEDRVVSKIVRTENEFVSVMKEAQADPNRMYWIELILAKEGAPKVLKKMGKLFAEQNKS
notes: coupled with AraC/AraD/YqhD
In the case of B2, the kcat/Km in data set [3] stood at 500 M⁻¹ s⁻¹; in data set [4], 2500 M⁻¹ s⁻¹.
